This is an account of results in patent publication WO2020239014A1 (dated 2020).

Substitutions are numbered along the chain they refer to. Numbers in names are those of the source. Where “and” joins values, the source holds several entries; their conditions need not be identical. Equal values may be shown once.

Assay [1] deals with T1, CGRPα (4013281-1000, Bachem) (human, UniProt P06881 83-119, not fully specified).
T1 construct: mature; ELISA: coated Bachem CGRPα; also called α-CGRP; human CGRP
T1 peptide (looked up): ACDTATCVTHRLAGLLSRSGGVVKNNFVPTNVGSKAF
Put plainly: ELISA, coated CGRPα titrated (0-0.2 μg/mL), antibody fixed at 1 μg/mL. For orientation: In an ELISA, binding on a coated surface is turned into a signal by an enzyme label.

Assay [2] addresses T1, CGRPα (4013281-1000, Bachem). Put plainly: BLI (Octet RED 96), α-CGRP on streptavidin biosensors, antibody in solution, 1:1 model. Background: Biolayer interferometry detects binding as a change in optical thickness at a sensor tip.
The target is the same in assay [3]. Put plainly: cell-based or functional assay.

B1: CGRPM5-BA51.23-IgG2 (antibody, V domains shown)
VH: QVQLVQSGAEVKKPGASVKVSCKASGYTFTRYTMHWIRQAPGQGLEWMGYIYPSSGYTIYNQKFQGRVTMTRDTSTSTVYMELSSLRSEDTAVYYCATEGHYAGNGNYEGYWGQGTTVTVSS
VL: DIVMTQSPSSLSASVGDRVTITCRASSSISSNYLHWYQQKPGKAPKLLIYRTSNLASGVPSRFSGSGSGTDFTLTISSLQPEDFATYYCQQGSSIPFTFGQGTKLEIK
notes: Humanized BA51, IgG2; also called CGRP-BA51.23; CGRP-BA51.23-IgG2
What is called EC50 is the midpoint of the concentration-response curve. High values mean lower potency in that assay, low ones higher potency in that assay. By Kd is commonly meant the concentration at which binding is half-saturated. Read a high Kd as lower affinity. Usually koff stands for the rate constant with which the complex falls apart. Broadly, the kon is a measure of how fast the partners come together. A low value points to slow association. With B1, the 50% effective concentration (EC50) in assay [1] is 0.0135 µg/mL and 0.036 µg/mL. In assay [2], this molecule showed a Kd of less than 1 pM, a koff of less than 1e-07 s⁻¹ and an association rate constant (kon) of 122000 M⁻¹ s⁻¹.

B2: CGRPM5-BA51.23-IgG2-N105L (antibody, V domains shown)
VH: B1 VH with N105L
VL: B1 VL
notes: IgG2; also called optimized BA51.23 antibody (N105L)
As to B2, the “EC50, cell-based cAMP activation assay (HTRF) with CGRP” value in assay [3] turned out to be 44.9 µg/mL. In assay [1], this molecule came in with a concentration giving a half-maximal response (EC50) of 0.0106 µg/mL.

B3: CGRPM5-BA51.23-IgG2-N105D (antibody, V domains shown)
VH: B1 VH with N105D
VL: B1 VL
notes: IgG2; also called optimized BA51.23 antibody (N105D)
With B3, in assay [3], the “EC50, cell-based cAMP activation assay (HTRF) with CGRP” value worked out at 32 µg/mL. Moreover, the EC50 in assay [1] amounted to 0.00844 µg/mL.
